B1: efnB3: recombinant Efn ligand containing a His-Tag (R&D Systems), pre-clustered with anti-His antibody (protein, UniProt Q15768 28-226, looked up)
extracellular domain: LSLEPVYWNSANKRFQAEGGYVLYPQIGDRLDLLCPRARPPGPHSSPNYEFYKLYLVGGAQGRRCEAPPAPNLLLTCDRPDLDLRFTIKFQEYSPNLWGHEFRSHHDYYIIATSDGTREGLESLQGGVCLTRGMKVLLRVGQSPRGGAVPRKPVSEMPMERDRGAAHSLEPGKENLPGDPTSNATSRGAEGPLPPPSMP
modifications: extracellular domain His tag, pre-clustered
notes: recombinant Efn ligand containing a His-Tag (R&D Systems), pre-clustered with anti-His antibody
B2: efnB1: pre-clustered ephrin ligand on laminin-coated surface (protein, UniProt P98172 28-346, looked up)
Ephrin-B1: LAKNLEPVSWSSLNPKFLSGKGLVIYPKIGDKLDIICPRAEAGRPYEYYKLYLVRPEQAAACSTVLDPNVLVTCNRPEQEIRFTIKFQEFSPNYMGLEFKKHHDYYITSTSNGSLEGLENREGGVCRTRTMKIIMKVGQDPNAVTPEQLTTSRPSKEADNTVKMATQAPGSRGSLGDSDGKHETVNQEEKSGPGASGGSSGDPDGFFNSKVALFAAVGAGCVIFLLIIIFLTVLLLKLRKRHRKHTQQRAAALSLSTLASPKGGSGTAGTEPSDIIIPLRTTENNYCPHYEKVSGDYGHPVYIVQEMPPQSPANIYYKV
modifications: pre-clustered
notes: pre-clustered ephrin ligand on laminin-coated surface

Tested on: human fetal brain-derived neural stem cells (hNSC)
Assay: hNSC growth on ephrin-ligand repulsive substrates
Type: cell-based
Settings: for substrate effect on neuronal cell growth: laminin-coated surfaces containing pre-clustered efn ligand
Description: Fetal brain-derived neural stem cells (hNSC): In order to evaluate the effect of xEFN peptides on human neuronal cells, StemPro hNSC were purchased from ThermoFisher Scientific (Cat. no. A15654) and cultured according to the manufacturer's recommended protocol. Briefly, cells were grown in non-adherent neurosphere suspension cultures in StemPro NSC serum-free media (NSC-SFM) (Cat. no. A10509-01) supplemented with 2 mM GlutaMAX-I supplement, 6 U/mL heparin, and 200 μM ascorbic acid (Sigma-Aldrich, Cat. no. A8960). Culture media was changed every 2 days and cells were passaged every 7 days as undifferentiated hNSC. To induce differentiation into neuronal cells, hNSC neurospheres were dissociated into single-cell suspensions using StemPro Accutase for 5 minutes at 37° C. followed by mechanical pipetting. hNSC were then plated onto Geltrex-coated culture vessels at a concentration of 2×10^4 cells/cm^2 in neuronal differentiation media consisting of NSC media without bFGF or EGF and supplemented with B-27 supplement (ThermoFisher Scientific) for 3 days prior to performing further in vitro assays.
Glial-bound efn ligands have been associated with mediating the major repulsive milieu for neuronal process in the CNS. […] Moreover, assays on the repulsive nature of efn ligand-presenting surfaces have been a mainstay in axonal guidance studies for many decade. The use of xEFN peptides to antagonize this repulsive signaling from efn ligand substrates was evaluated on human fetal brain-derived neural stem cells (hNSC).
Recombinant Efn ligands (A2, A4, and B3) containing a His-Tag were purchased from R&D Systems, and were pre-clustered using an anti-His antibody (Genetex) for 30 min. The pre-clustered Efn ligands, or anti-his antibody alone, (control) were then mixed with laminin from human placenta (Sigma-Aldrich) in suspension and used to coat the growth surface of a 24-well plate. […] The entire wells were then scanned using an EVOS FL Auto fluorescent microscope and the images were analyzed in the ImageJ software to calculate cell coverage area.

Molecule	substrate effect on neuronal cell growth	hNSC confluence on pre-clustered efn ligand substrate (no peptide, compared to the laminin-only control confluence)
B1	highly repulsive substrates	44.61+/−1.61%
B2	highly repulsive substrates	–

Reference: US20250042968A1, “EPHRIN LIGAND MIMETIC PEPTIDES FOR THE TREATMENT OF NEURODEGENERATIVE DISEASES” (University of Miami, priority 2022, published 2025)
